The target of data set [1] is T1, hORC1 BAH domain, wild type (human, UniProt Q13415 45-171).
T1 sequence: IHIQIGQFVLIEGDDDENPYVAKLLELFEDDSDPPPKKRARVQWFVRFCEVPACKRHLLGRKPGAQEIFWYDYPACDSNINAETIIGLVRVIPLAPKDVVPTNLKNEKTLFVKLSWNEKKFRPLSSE
Put plainly: EMSA. A general note: Mobility shift assays separate free from complexed probe on a gel.

Data set [2] has as its target T2, human Origin Recognition Complex subunit 1 BAH domain, wild type (human, UniProt Q13415 45-171).
T2 sequence (looked up): T1 sequence
Put plainly: ITC.

In data set [3] the target is T3, human Origin Recognition Complex subunit 1 BAH domain, R105Q mutant (human, UniProt Q13415 45-171, R105Q).
T3 sequence (looked up): T1 sequence with R61Q
The experiment in a line: ITC. (In ITC the heat of successive injections is recorded.)

Numbering of substitutions follows the chain as printed. No end group written: not given here.

B1: 14-bp DNA duplex (dsDNA)
DNA 1: GGAGGCCTCCTGCT
DNA 2: AGCAGGAGGCCTCC
Take B1: in data set [1], the binding result is recorded as “binds”.

GAKRHRCVLRDNY (not fully specified (residue 7)) [histone H4(14–25)Kc20me2 peptide]: the Kd (commonly the concentration at which binding is half-saturated) in data set [2] is 8.85 µM; in data set [3], 8.33 µM.

The values are drawn from PMC4654454 (ACS chemical biology, 2015).
